Measurements as given in patent publication US20140120095A1 (Boehringer Ingelheim, published 2014).

T1: recombinant mouse VEGF164 (mouse, UniProt Q00731-2 27-190, biotinylated as the labelled ligand of the mVEGF164/mVEGFR2 AlphaScreen)
T1 construct: also called mVEGF164; rmVEGF164
T1 sequence (looked up): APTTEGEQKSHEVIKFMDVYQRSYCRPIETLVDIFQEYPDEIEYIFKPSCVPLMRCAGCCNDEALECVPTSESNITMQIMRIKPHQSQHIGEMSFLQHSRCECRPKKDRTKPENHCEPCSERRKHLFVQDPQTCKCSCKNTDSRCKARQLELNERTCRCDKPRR

T2: recombinant human VEGF121 (human, UniProt P15692-9 27-147)
T2 construct: also called rhVEGF121
T2 sequence (looked up): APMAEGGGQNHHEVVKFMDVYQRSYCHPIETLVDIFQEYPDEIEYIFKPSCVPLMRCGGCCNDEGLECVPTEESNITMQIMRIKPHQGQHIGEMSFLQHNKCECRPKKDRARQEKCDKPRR


Assays:
[1] = molecular target: T3, human DLL4, full length, overexpressed on cells (human, UniProt Q9NR61 27-685); test: FMAT, hNotch1-Fc on CHO-hDLL4, -HSA
T3 construct: CHO cells in FMAT, HEK293 cells in the reporter assay; also called hDLL4; CHO-hDLL4

[2] = molecular target: T3, human DLL4, full length, overexpressed …; test: FMAT, hNotch1-Fc on CHO-hDLL4, +25 uM HSA
[3] = molecular target: T4, VEGF (used to stimulate HUVEC cells) (UniProt P15692-4 27-191, limits assumed); test: cell-based or functional assay
T4 sequence (P15692 other isoform, or with tags, fused parts or gaps limits assumed): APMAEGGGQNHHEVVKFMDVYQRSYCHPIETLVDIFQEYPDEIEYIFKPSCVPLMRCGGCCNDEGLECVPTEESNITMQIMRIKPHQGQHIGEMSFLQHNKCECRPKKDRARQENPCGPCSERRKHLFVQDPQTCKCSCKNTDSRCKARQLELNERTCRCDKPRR

[4] = molecular target: T5, recombinant human VEGF165 (human, UniProt P15692-4 27-191, biotinylated in the competition assays); test: SPR Biacore, immobilised hVEGF165, two state reaction model
T5 construct: Bought protein; also called hVEGF165; rhVEGF165
Procedure: Samples are injected for 2 min and allowed to dissociate up to 20 min at a flow rate of 45 μl/min. In between sample injections, the chip surface is regenerated with 100 mM HCl. HBS-EP+(Hepes buffer pH7.4+EDTA) is used as running buffer. Binding curves are fitted using a Two State Reaction model by Biacore T100 Evaluation Software v2.0.1.
^{(a)}KD = kd1/kₐ₁ * (kd2/(kd2 + kₐ₂)) ^{(b)}Curves are fitted using a Two State Reaction model by Biacore T100 Evaluation Software v2.0.1

[5] = molecular target: T5, recombinant human VEGF165; test: ELISA, hVEGF165/hVEGFR2-Fc competition; parameters: % inhibition: concentration or dose not given beside the values
[6] = molecular target: T1, recombinant mouse VEGF164; test: binding ELISA on coated recombinant mouse VEGF164 (Example 12.6), OD 450 nm
Procedure: Cross-reactivity to mouse VEGF164 is determined using a binding ELISA. […] Wells are blocked with a casein solution (1% in PBS). […] A mouse VEGF164 reactive mAb is included as positive control.

[7] = molecular target: T5, recombinant human VEGF165; test: AlphaScreen, hVEGF165/hVEGFR1-Fc competition; parameters: % inhibition: concentration or dose not given beside the values
Procedure: (§1) Finally, streptavidin donor beads (20 μg/ml) are added and after 1 hour of incubation in the dark, fluorescence is measured on the Envision microplate reader.

[8] = molecular target: T5, recombinant human VEGF165; test: binding ELISA, coated rhVEGF165
[9] = molecular target: T2, recombinant human VEGF121; test: binding ELISA, coated rhVEGF121
Procedure: Binding to recombinant human VEGF121 is assessed via a solid phase binding ELISA. […] Wells are blocked with a casein solution (1% in PBS).

[10] = molecular target: T5, recombinant human VEGF165; test: ELISA, hVEGF165/hVEGFR1-Fc competition; parameters: % inhibition: concentration or dose not given beside the values
[11] = molecular target: T4, VEGF (used to stimulate HUVEC cells); test: cell-based or functional assay; remark: listed apart in the source
[12] = molecular target: T5, recombinant human VEGF165; test: AlphaScreen, hVEGF165/hVEGFR2-Fc competition; parameters: % inhibition: concentration or dose not given beside the values
Procedure: as §1

[13] = molecular target: DII4-His (C-terminal His-tagged human DII4, amino acid 27-524) (human, UniProt Q9NR61 25-522); test: cell-based or functional assay
[14] = molecular target: VEGF (UniProt P15692-4 27-191, limits assumed); test: cell-based or functional assay
Chain of VEGF (P15692 other isoform, or with tags, fused parts or gaps limits assumed): as above

[15] = molecular target: T5, recombinant human VEGF165; test: AlphaScreen, hVEGF165/hVEGFR2-Fc competition
Procedure: as §1

[16] = molecular target: T5, recombinant human VEGF165; test: AlphaScreen, hVEGF165/hVEGFR1-Fc competition
Procedure: as §1

[17] = molecular target: T5, recombinant human VEGF165; test: AlphaScreen, hVEGF165/hVEGFR1-Fc competition, -HSA
[18] = molecular target: T5, recombinant human VEGF165; test: AlphaScreen, hVEGF165/hVEGFR2-Fc competition, -HSA
[19] = molecular target: T5, recombinant human VEGF165; test: AlphaScreen, hVEGF165/hVEGFR2-Fc competition, +5 uM HSA
Procedure: These 2 competition assays are also performed after preincubation of the VHHs with 5 μM human serum albumin.

Binder | Kd [4] | ka1 [4] | ka2 [4] | kd1 [4] | kd2 [4] | % inhibition [5] | IC50 [5] | binding result [6] | % inhibition [7] | IC50 [7] | EC50 [8] | EC50 [9] | % inhibition, VEGF HUVEC Erk phosphorylation assay [11] | IC50, VEGF HUVEC Erk phosphorylation assay [11] | % inhibition [12] | IC50 [12] | also measured
DLLBII101G08 (VHH, not shown: small tags and cut ends, Anti-DLL4 VHH; also called 101G8) VHH: EVQLVESGGGLVQAGGSLRLSCAASGRTFSSYAMAWFRQAPGKEREFVAAIRWSGGTAYYADSVQGRFTISRDNAKNTVYLQMNSLKPEDTAVYYCANRAADTRLGPYEYDYWGQGTQVTVSS |  |  |  |  |  |  |  |  |  |  |  |  |  |  |  |  | IC50 [1]: 31 nM; IC50 [2]: 30.1 nM
VEGFBII010 (VHH, not shown: small tags and cut ends, Homodimeric bivalent anti-VEGF VHH; also called VEGFBII23B04-35GS-23B04) EVQLVESGGGLVQTGDSLRLSCEVSGRTFSSYSMGWFRQAQGKEREFVVAISKGGYKYDSVSLEGRFTISKDNAKNTVYLQINSLKPEDTAVYYCASSRAYGSSRLRLADTYEYWGQGTQVTVSSGGGGSGGGGSGGGGSGGGGSGGGGSGGGGSGGGGSEVQLVESGGGLVQTGDSLRLSCEVSGRTFSSYSMGWFRQAQGKEREFVVAISKGGYKYDSVSLEGRFTISKDNAKNTVYLQINSLKPEDTAVYYCASSRAYGSSRLRLADTYEYWGQGTQVTVSS | 0.16 nM | 450000 M⁻¹ s⁻¹ | 0.029 s⁻¹ | 0.017 s⁻¹ | 0.00013 s⁻¹ | 100% | 0.049 nM | binds | 70% | 0.021 nM | 0.428 nM | 0.92 nM | 92% | 0.19 nM | 100% | 0.016 nM | % inhibition, VEGF HUVEC proliferation assay [3]: 95%; IC50, VEGF HUVEC proliferation assay [3]: 0.22 nM; % inhibition [10]: 67%; IC50 [10]: 0.0735 nM
VEGFDLLBII014 (bispecific antibody, PEGylated 35gs, cys15 linker (PEG on the Cys at position 15 of the 35 Gly-Ser linker; size of the PEG not stated)) EVQLVESGGGLVQTGDSLRLSCEVSGRTFSSYSMGWFRQAQGKEREFVVAISKGGYKYDSVSLEGRFTISKDNAKNTVYLQINSLKPEDTAVYYCASSRAYGSSRLRLADTYEYWGQGTQVTVSSGGGGSGGGSEVQLVESGGGLVQPGGSLRLSCVASGIRFMSMAWYRQAPGKHRELVARISSGGTTAYVDSVKGRFTISRDNSKNTVYLQMNSLKAEDTAVYYCNTFSSRPNPWGAGTQVTVSSGGGGSGGGGSGGGGCGGGGSGGGGSGGGGSGGGGSEVQLVESGGGLVQAGGSLRLSCAASGRTFSSYAMAWYRQAPGKEREYVAAIRWSGGTAYYADSVQGRFTISRDNAKNTVYLQMNSLKPEDTAVYYCANRAPDTRLAPYEYDHWGQGTQVTVSS |  |  |  |  |  |  |  |  |  |  |  |  |  |  |  |  | IC50 (nM), DII4-mediated HUVEC proliferation assay, -HSA [13]: 0.53 nM; % inhibition, VEGF HUVEC Erk phosphorylation assay, -HSA [14]: 101%; IC50 (nM), VEGF HUVEC Erk phosphorylation assay, -HSA [14]: 0.53 nM
VEGFBII025 (VHH, not shown: small tags and cut ends, Bivalent anti-VEGF VHH; also called VEGFBII10E07-40GS-23B04) EVQLVESGGGLVQAGGSLRLSCAASGRTFSNYAMGWFRQAPGKERVLVADISSSGINTYVADAVKGRFTISRDNAKNTVYLQMNSLKPEDTAVYYCAASAWWYSQMARDNYRYWGQGTQVTVSSGGGGSGGGGSGGGGSGGGGSGGGGSGGGGSGGGGSGGGGSEVQLVESGGGLVQTGDSLRLSCEVSGRTFSSYSMGWFRQAQGKEREFVVAISKGGYKYDSVSLEGRFTISKDNAKNTVYLQINSLKPEDTAVYYCASSRAYGSSRLRLADTYEYWGQGTQVTVSS | 1.1 nM | 330000 M⁻¹ s⁻¹ | 0.018 s⁻¹ | 0.017 s⁻¹ | 0.00037 s⁻¹ | 100% | 0.577 nM | binds | 82% | 0.071 nM | 0.668 nM | 0.475 nM | 99% | 0.23 nM | 100% | 0.051 nM | IC50 [15]: 0.051 nM; % inhibition [16]: 82%; IC50 [16]: 0.039 nM
VEGFBII024 (VHH, not shown: small tags and cut ends, Bivalent anti-VEGF VHH; also called VEGFBII23B04-40GS-86H09) EVQLVESGGGLVQTGDSLRLSCEVSGRTFSSYSMGWFRQAQGKEREFVVAISKGGYKYDSVSLEGRFTISKDNAKNTVYLQINSLKPEDTAVYYCASSRAYGSSRLRLADTYEYWGQGTQVTVSSGGGGSGGGGSGGGGSGGGGSGGGGSGGGGSGGGGSGGGGSEVQLVESGGGLVQAGGSLRLSCTASGSAFKSYRMGWFRRTPGKEDEFVASISWTYGSTFYADSVKGRFTMSRDKAKNAGYLQMNSLKPEDTALYYCAAGAQSDRYNIRSYDYWGQGTQVTVSS | 0.47 nM | 300000 M⁻¹ s⁻¹ | 0.026 s⁻¹ | 0.013 s⁻¹ | 0.00028 s⁻¹ | 100% | 0.292 nM | binds | 98% | 0.069 nM | 0.32 nM | 0.325 nM | 94% | 0.23 nM | 100% | 0.05 nM | % inhibition, VEGF HUVEC proliferation assay [3]: 96%; IC50, VEGF HUVEC proliferation assay [3]: 0.38 nM; IC50 [15]: 0.012 nM; % inhibition [16]: 100%; IC50 [16]: 0.046 nM; % inhibition [10]: 92%; IC50 [10]: 0.326 nM
VEGFDLLBII015 (bispecific antibody, PEGylated 35gs, cys15 linker (PEG on the Cys at position 15 of the 35 Gly-Ser linker; size of the PEG not stated)) EVQLVESGGGLVQTGDSLRLSCEVSGRTFSSYSMGWFRQAQGKEREFVVAISKGGYKYDSVSLEGRFTISKDNAKNTVYLQINSLKPEDTAVYYCASSRAYGSSRLRLADTYEYWGQGTQVTVSSGGGGSGGGGSGGGGCGGGGSGGGGSGGGGSGGGGSEVQLVESGGGLVQPGGSLRLSCVASGIRFMSMAWYRQAPGKHRELVARISSGGTTAYVDSVKGRFTISRDNSKNTVYLQMNSLKAEDTAVYYCNTFSSRPNPWGAGTQVTVSSGGGGSGGGGSGGGGSGGGGSGGGGSGGGGSGGGGSEVQLVESGGGLVQAGGSLRLSCAASGRTFSSYAMAWYRQAPGKEREYVAAIRWSGGTAYYADSVQGRFTISRDNAKNTVYLQMNSLKPEDTAVYYCANRAPDTRLAPYEYDHWGQGTQVTVSS |  |  |  |  |  |  |  |  |  |  |  |  |  |  |  |  | IC50 (nM), DII4-mediated HUVEC proliferation assay, -HSA [13]: 0.28 nM; % inhibition, VEGF HUVEC Erk phosphorylation assay, -HSA [14]: 106%; IC50 (nM), VEGF HUVEC Erk phosphorylation assay, -HSA [14]: 0.4 nM
VEGFDLLBII002 (bispecific antibody, PEGylated at the Cys at position 15 of the 35 Gly-Ser linker, VEGFBII23B04 - 35GS(Cys15) - DLLBII101G08) EVQLVESGGGLVQTGDSLRLSCEVSGRTFSSYSMGWFRQAQGKEREFVVAISKGGYKYDSVSLEGRFTISKDNAKNTVYLQINSLKPEDTAVYYCASSRAYGSSRLRLADTYEYWGQGTQVTVSSGGGGSGGGGSGGGGCGGGGSGGGGSGGGGSGGGGSEVQLVESGGGLVQAGGSLRLSCAASGRTFSSYAMAWFRQAPGKEREFVAAIRWSGGTAYYADSVQGRFTISRDNAKNTVYLQMNSLKPEDTAVYYCANRAADTRLGPYEYDYWGQGTQVTVSS |  |  |  |  |  |  |  |  |  |  |  |  |  |  |  |  | % inh [17]: 64%; IC50 [17]: 0.36 nM; % inh [18]: 100%; IC50 [18]: 0.2 nM; IC50 [1]: 106 nM; IC50 [2]: 120 nM; % inh [19]: 100%; IC50 [19]: 0.24 nM
